Values quoted from earlier work, collected in PMC5473928.
“And” between values parts separate entries of the source, which are not always exact repeats. Identical values can stand only once.

Biological target: SOS allosteric site (Homo sapiens) (UniProt Q07889)

Kd: 3.6 µM and 10 µM
Substance: KRas (from UniProt P01116)
